Biological target: T1, FRB-24-mCherry-Wp3-TwinStrep
T1 construct: also called Negative control (mCherry); FRB-mCherry fusion
Assay: OECT transfer curves (ID against VG), PEDOT:PSS channel

B1: GFPnanobody-8aa-SpyCatcher-3C cleavage site-His10 (VHH)
VHH: QVQLVESGGALVQPGGSLRLSCAASGFPVNRYSMRWYRQAPGKEREWVAGMSSAGDRSSYEDSVKGRFTISRDDARNTVYLQMNSLKPEDTAVYYCNVNVGFEYWGQGTQVTVSS
notes: also called anti-GFP nanobody; GFP nanobody-SpyCatcher
binding result: no binding (tested: 2 x 10^-8 M)

Source: patent publication US20240280570A1 (KING ABDULLAH UNIVERSITY OF SCIENCE AND TECHNOLOGY, published 2024)
